B1: Ribonucleoside-diphosphate reductase large subunit (Human herpesvirus 2 (strain HG52) (HHV-2)), P89462 (parent)
chain: MANRPAASALAGARSPSERQEPREPEVAPPGGDHVFCRKVSGVMVLSSDPPGPAAYRISDSSFVQCGSNCSMIIDGDVARGHLRDLEGATSTGAFVAISNVAAGGDGRTAVVALGGTSGPSATTSVGTQTSGEFLHGNPRTPEPQGPQAVPPPPPPPFPWGHECCARRDARGGAEKDVGAAESWSDGPSSDSETEDSDSSDEDTGSETLSRSSSIWAAGATDDDDSDSDSRSDDSVQPDVVVRRRWSDGPAPVAFPKPRRPGDSPGNPGLGAGTGPGSATDPRASADSDSAAHAAAPQADVAPVLDSQPTVGTDPGYPVPLELTPENAEAVARFLGDAVDREPALMLEYFCRCAREESKRVPPRTFGSAPRLTEDDFGLLNYALAEMRRLCLDLPPVPPNAYTPYHLREYATRLVNGFKPLVRRSARLYRILGVLVHLRIRTREASFEEWMRSKEVDLDFGLTERLREHEAQLMILAQALNPYDCLIHSTPNTLVERGLQSALKYEEFYLKRFGGHYMESVFQMYTRIAGFLACRATRGMRHIALGRQGSWWEMFKFFFHRLYDHQIVPSTPAMLNLGTRNYYTSSCYLVNPQATTNQATLRAITGNVSAILARNGGIGLCMQAFNDASPGTASIMPALKVLDSLVAAHNKQSTRPTGACVYLEPWHSDVRAVLRMKGVLAGEEAQRCDNIFSALWMPDLFFKRLIRHLDGEKNVTWSLFDRDTSMSLADFHGEEFEKLYEHLEAMGFGETIPIQDLAYAIVRSAATTGSPFIMFKDAVNRHYIYDTQGAAIAGSNLCTEIVHPASKRSSGVCNLGSVNLARCVSRQTFDFGRLRDAVQACVLMVNIMIDSTLQPTPQCTRGNDNLRSMGIGMQGLHTACLKMGLDLESAEFRDLNTHIAEVMLLAAMKTSNALCVRGARPFSHFKRSMYRAGRFHWERFSNASPRYEGEWEMLRQSMMKHGLRNSQFIALMPTAASAQISDVSEGFAPLFTNLFSKVTRDGETLRPNTLLLKELERTFGGKRLLDAMDGLEAKQWSVAQALPCLDPAHPLRRFKTAFDYDQELLIDLCADRAPYVDHSQSMTLYVTEKADGTLPASTLVRLLVHAYKRGLKTGMYYCKVRKATNSGVFAGDDNIVCTSCAL

Variants of: B1
Conditions: with ripk3_human RIPK3, Q9Y572
ripk3_human RIPK3, Q9Y572, sequence (Q9Y572 whole entry, looked up): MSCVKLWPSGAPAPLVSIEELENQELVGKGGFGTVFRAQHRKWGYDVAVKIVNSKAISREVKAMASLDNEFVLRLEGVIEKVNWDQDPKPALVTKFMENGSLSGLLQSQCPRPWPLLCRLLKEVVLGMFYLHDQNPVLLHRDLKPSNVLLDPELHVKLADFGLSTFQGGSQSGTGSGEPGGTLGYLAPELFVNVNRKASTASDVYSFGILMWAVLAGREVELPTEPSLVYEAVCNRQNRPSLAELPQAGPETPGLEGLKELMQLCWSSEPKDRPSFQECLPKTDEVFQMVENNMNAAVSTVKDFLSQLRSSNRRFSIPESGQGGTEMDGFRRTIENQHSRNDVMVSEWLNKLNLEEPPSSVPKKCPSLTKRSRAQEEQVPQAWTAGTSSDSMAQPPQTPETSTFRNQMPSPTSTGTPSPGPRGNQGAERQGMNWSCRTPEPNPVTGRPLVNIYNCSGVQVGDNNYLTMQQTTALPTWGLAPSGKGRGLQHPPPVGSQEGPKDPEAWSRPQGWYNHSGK

Row | Variant | effect of a mutation on the interaction
1 | V64A;Q65A;C66A;G67A | decreasing interaction strength
